Like-named read-outs stand apart in the source and are kept apart here.

Assay [1] concerns the target Ste5 minimal scaffold domain (Ste5-ms), fluorescein-labeled (S. cerevisiae) (UniProt P32917). Put plainly: fluorescence polarisation.
In assay [2] the target is Fus3 (Saccharomyces cerevisiae) (UniProt P16892). Conditions: cited from earlier work.
Assay [3] concerns the target Kss1 (Saccharomyces cerevisiae) (UniProt P14681). Conditions: cited from earlier work.
The target of assay [4] is Fus3 (Saccharomyces cerevisiae) (UniProt P16892). Conditions: cited from earlier work. The source holds these as a separate data set.

UniProt P16892, sequence (P16892 whole entry): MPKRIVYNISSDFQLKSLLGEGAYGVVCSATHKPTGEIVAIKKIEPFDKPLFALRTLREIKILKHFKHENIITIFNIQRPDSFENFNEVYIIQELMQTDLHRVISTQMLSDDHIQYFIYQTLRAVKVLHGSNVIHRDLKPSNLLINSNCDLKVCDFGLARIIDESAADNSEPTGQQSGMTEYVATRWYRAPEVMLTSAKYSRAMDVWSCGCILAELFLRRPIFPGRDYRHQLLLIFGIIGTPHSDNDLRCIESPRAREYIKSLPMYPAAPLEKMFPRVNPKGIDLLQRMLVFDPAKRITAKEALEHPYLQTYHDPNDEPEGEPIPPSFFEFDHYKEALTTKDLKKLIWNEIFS
UniProt P14681, sequence (P14681 whole entry): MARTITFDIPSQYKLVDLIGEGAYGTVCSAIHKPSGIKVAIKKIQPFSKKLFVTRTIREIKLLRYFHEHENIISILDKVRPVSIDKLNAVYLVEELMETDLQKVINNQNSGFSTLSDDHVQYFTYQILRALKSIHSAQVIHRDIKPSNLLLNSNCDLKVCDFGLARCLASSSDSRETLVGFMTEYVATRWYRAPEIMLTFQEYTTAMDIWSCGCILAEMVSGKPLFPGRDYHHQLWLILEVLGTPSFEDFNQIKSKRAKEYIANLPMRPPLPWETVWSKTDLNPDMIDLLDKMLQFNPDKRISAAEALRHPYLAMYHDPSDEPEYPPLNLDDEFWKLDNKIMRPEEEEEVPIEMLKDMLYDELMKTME

The substance “MAPKK Ste7 (from UniProt P06784 1-515) (enzyme)” displayed a Kd in assay [1] of 75 nM. Ste5 288-316 (from UniProt P32917): the Kd in assay [2] is 1000 nM. “Ste7 docking motif (from UniProt P06784)”: the Kd in assay [3] and in assay [4] was 100 nM in each case.
